Reference: the supplement of paper PMC5998384

Experiments:
[1] = test system: HeLa Kyoto; assay: solubility change mitosis vs G1/S (difference of NP-40 vs SDS log2 ratios) (log2 ratio difference); higher = more soluble in mitosis
[2] = test system: HeLa Kyoto; assay: thermal stability score vs G1/S (z-score of summed log2 fold changes over temperatures); higher = more thermally stable than in G1/S
[3] = test system: HeLa Kyoto; assay: melting temperature (median over replicates), in situ; higher = more thermally stable
[4] = test system: HeLa Kyoto; assay: solubility in G1/S (NP-40 vs SDS abundance) (log2 ratio); higher = more soluble; conditions: cell cycle stage: G1/S
[5] = cell cycle stage: early G1 (4.5 h after nocodazole release)
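Wherever melting temperature (median over replicates), in situ is given: HeLa Kyoto cells synchronized by double thymidine or nocodazole block, proteins quantified by TMT10plex mass spectrometry, three independent biological replicates.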
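Wherever solubility change mitosis vs G1/S (difference of NP-40 vs SDS log2 ratios) is given: synchronized HeLa Kyoto cells (double thymidine block for G1/S, nocodazole release for mitosis), protein amounts in NP-40 versus SDS lysates quantified by mass spectrometry, three biological replicates.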
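Wherever solubility in G1/S (NP-40 vs SDS abundance) is given: HeLa Kyoto cells arrested at G1/S by double thymidine block, proteins quantified by TMT10plex mass spectrometry in mild NP-40 versus SDS extracts, three biological replicates.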
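Wherever thermal stability score vs G1/S (z-score of summed log2 fold changes over temperatures) is given: synchronized HeLa Kyoto cells, proteins quantified by TMT10plex mass spectrometry, three biological replicates, mitosis taken 0.5 h after nocodazole release, G1/S directly after double thymidine block.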

Sequence	solubility change mitosis (log2) [1]	thermal stability score [2, 5]	thermal stability score ([2]; cell cycle stage: mitosis)	melting temperature ([3]; cell cycle stage: G1/S)	melting temperature ([3]; cell cycle stage: mitosis)	solubility in G1/S (log2) [4]
MEASRRFPEAEALSPEQAAHYLRYVKEAKEATKNGDLEEAFKLFNLAKDIFPNEKVLSRIQKIQEALEELAEQGDDEFTDVCNSGLLLYRELHNQLFEHQKEGIAFLYSLYRDGRKGGILADDMGLGKTVQIIAFLSGMFDASLVNHVLLIMPTNLINTWVKEFIKWTPGMRVKTFHGPSKDERTRNLNRIQQRNGVIITTYQMLINNWQQLSSFRGQEFVWDYVILDEAHKIKTSSTKSAICARAIPASNRLLLTGTPIQNNLQELWSLFDFACQGSLLGTLKTFKMEYENPITRAREKDATPGEKALGFKISENLMAIIKPYFLRRTKEDVQKKKSSNPEARLNEKNPDVDAICEMPSLSRKNDLIIWIRLVPLQEEIYRKFVSLDHIKELLMETRSPLAELGVLKKLCDHPRLLSARACCLLNLGTFSAQDGNEGEDSPDVDHIDQVTDDTLMEESGKMIFLMDLLKRLRDEGHQTLVFSQSRQILNIIERLLKNRHFKTLRIDGTVTHLLEREKRINLFQQNKDYSVFLLTTQVGGVGLTLTAATRVVIFDPSWNPATDAQAVDRVYRIGQKENVVVYRLITCGTVEEKIYRRQVFKDSLIRQTTGEKKNPFRYFSKQELRELFTIEDLQNSVTQLQLQSLHAAQRKSDIKLDEHIAYLQSLGIAGISDHDLMYTCDLSVKEELDVVEESHYIQQRVQKAQFLVEFESQNKEFLMEQQRTRNEGAWLREPVFPSSTKKKCPKLNKPQPQPSPLLSTHHTQEEDISSKMASVVIDDLPKEGEKQDLSSIKVNVTTLQDGKGTGSADSIATLPKGFGSVEELCTNSSLGMEKSFATKNEAVQKETLQEGPKQEALQEDPLESFNYVLSKSTKADIGPNLDQLKDDEILRHCNPWPIISITNESQNAESNVSIIEIADDLSASHSALQDAQASEAKLEEEPSASSPQYACDFNLFLEDSADNRQNFSSQSLEHVEKENSLCGSAPNSRAGFVHSKTCLSWEFSEKDDEPEEVVVKAKIRSKARRIVSDGEDEDDSFKDTSSINPFNTSLFQFSSVKQFDASTPKNDISPPGRFFSSQIPSSVNKSMNSRRSLASRRSLINMVLDHVEDMEERLDDSSEAKGPEDYPEEGVEESSGEASKYTEEDPSGETLSSENKSSWLMTSKPSALAQETSLGAPEPLSGEQLVGSPQDKAAEATNDYETLVKRGKELKECGKIQEALNCLVKALDIKSADPEVMLLTLSLYKQLNNN [ERCC6L]	-0.161	1.6	2.53	49.5 °C	49.1 °C	-0.0349
MADGQMPFSCHYPSRLRRDPFRDSPLSSRLLDDGFGMDPFPDDLTASWPDWALPRLSSAWPGTLRSGMVPRGPTATARFGVPAEGRTPPPFPGEPWKVCVNVHSFKPEELMVKTKDGYVEVSGKHEEKQQEGGIVSKNFTKKIQLPAEVDPVTVFASLSPEGLLIIEAPQVPPYSTFGESSFNNELPQDSQEVTCT [HSPB8]	0.167	-0.244	0.347	52.3 °C	52.1 °C	0.653
MKLLTHNLLSSHVRGVGSRGFPLRLQATEVRICPVEFNPNFVARMIPKVEWSAFLEAADNLRLIQVPKGPVEGYEENEEFLRTMHHLLLEVEVIEGTLQCPESGRMFPISRGIPNMLLSEEETES [TRMT112]	0.201	-4.68	-1.02	51.5 °C	51.4 °C	0.323
MAASMFYGRLVAVATLRNHRPRTAQRAAAQVLGSSGLFNNHGLQVQQQQQRNLSLHEYMSMELLQEAGVSVPKGYVAKSPDEAYAIAKKLGSKDVVIKAQVLAGGRGKGTFESGLKGGVKIVFSPEEAKAVSSQMIGKKLFTKQTGEKGRICNQVLVCERKYPRREYYFAITMERSFQGPVLIGSSHGGVNIEDVAAESPEAIIKEPIDIEEGIKKEQALQLAQKMGFPPNIVESAAENMVKLYSLFLKYDATMIEINPMVEDSDGAVLCMDAKINFDSNSAYRQKKIFDLQDWTQEDERDKDAAKANLNYIGLDGNIGCLVNGAGLAMATMDIIKLHGGTPANFLDVGGGATVHQVTEAFKLITSDKKVLAILVNIFGGIMRCDVIAQGIVMAVKDLEIKIPVVVRLQGTRVDDAKALIADSGLKILACDDLDEAARMVVKLSEIVTLAKQAHVDVKFQLPI [SUCLA2]	-0.0729	-0.13	1.1	49.7 °C	49.8 °C	0.0965
